# ± gives the standard deviation of the averaged measurements.
# Test: total protein half-life in vivo (active degradation + dilution); higher = more stable protein
# [1] = E. coli NCM3722 delta-clpP delta-lon delta-hslV, growth: N-lim chemostat, doubling time 6 h
# [2] = E. coli NCM3722 delta-clpP, growth: N-lim chemostat, doubling time 6 h
# [3] = E. coli NCM3722 delta-hslV, growth: N-lim chemostat, doubling time 6 h
# [4] = E. coli NCM3722 delta-lon, growth: N-lim chemostat, doubling time 6 h
# [5] = E. coli NCM3722 delta-smpB, growth: N-lim chemostat, doubling time 6 h
# [6] = wild type E. coli NCM3722, growth: C-lim chemostat, doubling time 3 h
# [7] = wild type E. coli NCM3722, growth: C-lim chemostat, doubling time 6 h
# [8] = wild type E. coli NCM3722, growth: C-lim chemostat, doubling time 12 h
# [9] = wild type E. coli NCM3722, growth: N-lim chemostat, doubling time 6 h
# [10] = wild type E. coli NCM3722, growth: N-lim chemostat, doubling time 12 h
# [11] = wild type E. coli NCM3722, growth: P-lim chemostat, doubling time 6 h
# [12] = wild type E. coli NCM3722, growth: P-lim chemostat, doubling time 12 h
Sequence,total protein half-life in vivo [1] [h],total protein half-life in vivo [2] [h],total protein half-life in vivo [3] [h],total protein half-life in vivo [4] [h],total protein half-life in vivo [5] [h],total protein half-life in vivo [6] [h],total protein half-life in vivo [7] [h],total protein half-life in vivo [8] [h],total protein half-life in vivo [9] [h],total protein half-life in vivo [10] [h],total protein half-life in vivo [11] [h],total protein half-life in vivo [12] [h]
MGAYLIRRLLLVIPTLWAIITINFFIVQIAPGGPVDQAIAAIEFGNAGVLPGAGGEGVRASHAQTGVGNISDSNYRGGRGLDPEVIAEITHRYGFDKPIHERYFKMLWDYIRFDFGDSLFRSASVLTLIKDSLPVSITLGLWSTLIIYLVSIPLGIRKAVYNGSRFDVWSSAFIIIGYAIPAFLFAILLIVFFAGGSYFDLFPLRGLVSANFDSLPWYQKITDYLWHITLPVLATVIGGFAALTMLTKNSFLDEVRKQYVVTARAKGVSEKNILWKHVFRNAMLLVIAGFPATFISMFFTGSLLIEVMFSLNGLGLLGYEATVSRDYPVMFGTLYIFTLIGLLLNIVSDISYTLVDPRIDFEGR [P0AFU0],7.09 ± 0.14,5.97,6.39 ± 0.7,5.52 ± 0.49,5.85 ± 0.32,3.47 ± 0.61,5.83 ± 1.1,13.9 ± 1.7,5.33,11.8 ± 1.6,6.2,12.4 ± 0.79
MGDSILSQAEIDALLNGDSEVKDEPTASVSGESDIRPYDPNTQRRVVRERLQALEIINERFARHFRMGLFNLLRRSPDITVGAIRIQPYHEFARNLPVPTNLNLIHLKPLRGTGLVVFSPSLVFIAVDNLFGGDGRFPTKVEGREFTHTEQRVINRMLKLALEGYSDAWKAINPLEVEYVRSEMQVKFTNITTSPNDIVVNTPFHVEIGNLTGEFNICLPFSMIEPLRELLVNPPLENSRNEDQNWRDNLVRQVQHSQLELVANFADISLRLSQILKLNPGDVLPIEKPDRIIAHVDGVPVLTSQYGTLNGQYALRIEHLINPILNSLNEEQPK,4.44 ± 0.11,–,–,–,–,2.17 ± 0.39,3.96 ± 0.9,6.79 ± 0.98,–,–,–,–
MGEISITKLLVVAALVVLLFGTKKLRTLGGDLGAAIKGFKKAMNDDDAAAKKGADVDLQAEKLSHKE [P0A843],1.78 ± 1,1.57 ± 0.29,1.48 ± 0.19,1.01 ± 0.26,1.05 ± 0.24,0.833 ± 0.13,0.983,1.3 ± 0.34,1.79,2.14 ± 0.98,0.79,1.59 ± 0.77
MGFTTRVKSEASEKKPFNFALFWDKYGTFFILAIIVAIFGSLSPEYFLTTNNITQIFVQSSVTVLIGMGEFFAILVAGIDLSVGAILALSGMVTAKLMLAGVDPFLAAMIGGVLVGGALGAINGCLVNWTGLHPFIITLGTNAIFRGITLVISDANSVYGFSFDFVNFFAASVIGIPVPVIFSLIVALILWFLTTRMRLGRNIYALGGNKNSAFYSGIDVKFHILVVFIISGVCAGLAGVVSTARLGAAEPLAGMGFETYAIASAIIGGTSFFGGKGRIFSVVIGGLIIGTINNGLNILQVQTYYQLVVMGGLIIAAVALDRLISK,–,–,5.22,–,–,–,5.91,–,–,–,–,–
MGKAVIAIHGGAGAISRAQMSLQQELRYIEALSAIVETGQKMLEAGESALDVVTEAVRLLEECPLFNAGIGAVFTRDETHELDACVMDGNTLKAGAVAGVSHLRNPVLAARLVMEQSPHVMMIGEGAENFAFARGMERVSPEIFSTSLRYEQLLAARKEGATVLDHSGAPLDEKQKMGTVGAVALDLDGNLAAATSTGGMTNKLPGRVGDSPLVGAGCYANNASVAVSCTGTGEVFIRALAAYDIAALMDYGGLSLAEACERVVMEKLPALGGSGGLIAIDHEGNVALPFNTEGMYRAWGYAGDTPTTGIYREKGDTVATQ,4.9 ± 0.24,3.77 ± 0.08,3.58 ± 0.043,3.62 ± 0.16,3.16 ± 0.25,2.78 ± 0.19,4.99 ± 0.29,11.2 ± 4.6,3.47 ± 0.42,4.78 ± 0.12,4.75 ± 0.052,8.26 ± 0.14
MGKLGENVPLLIDKAVDFMASSQAFREYLKKLPPRNAIPSGIPDESVPLYLQRLEYYRRLYRPKQVEGQ [Q2M7R5],–,4.46 ± 1.4,3.56,3.4,3.22 ± 0.16,1.99 ± 0.42,4.09 ± 0.43,4.69,2.94 ± 0.43,4.57 ± 1.1,3.73 ± 0.57,8.27 ± 0.33
MGKLTGKTALITGALQGIGEGIARTFARHGANLILLDISPEIEKLADELCGRGHRCTAVVADVRDPASVAAAIKRAKEKEGRIDILVNNAGVCRLGSFLDMSDDDRDFHIDINIKGVWNVTKAVLPEMIARKDGRIVMMSSVTGDMVADPGETAYALTKAAIVGLTKSLAVEYAQSGIRVNAICPGYVRTPMAESIARQSNPEDPESVLTEMAKAIPMRRLADPLEVGELAAFLASDESSYLTGTQNVIDGGSTLPETVSVGI,5.394 ± 0.017,4.09 ± 0.14,–,–,4.12 ± 0.29,2.91 ± 0.32,6.12 ± 0.41,10.2 ± 1.1,5.35,6.28,6.25 ± 0.41,14.8 ± 0.61
MGKTISIKVLFGIYLLLMAGKVFAFSCNVDGGSSIGAGTTSVYVNLDPVIQPGQNLVVDLSQHISCWNDYGGWYDTDHINLVQGSAFAGSLQSYKGSLYWNNVTYPFPLTTNTNVLDIGDKTPMPLPLKLYITPVGAAGGVVIKAGEVIARIHMYKIATLGSGNPRNFTWNIISNNNVVMPTGGCTVDSRNVTVDLPDFPGSAEIPLGVYCSSEQKLSFYLSGATTDSSRQVFANTAPDATKASGVGVTLMRNGKILATGENVSLGTVNKSKVPLGLSATYGQTGNKVSAGTVQSVIGVTFIYE,–,5.18 ± 0.35,–,–,5.306 ± 0.0055,2.85 ± 0.12,3.09,8.385 ± 0.065,6.56,12.7 ± 0.21,–,–
